Laboratory results taken from patent US20240261333A1 (published 2024).

Key:
Test in all cases: anti-FLAG co-IP from lysate of N-FLAG B3GNT2 cells, mass spectrometry
SFXN3 = biological target: T1, SFXN3 (human, UniProt Q9BWM7 1-321)
T1 construct: also called NP_112233.2
T1 sequence (looked up): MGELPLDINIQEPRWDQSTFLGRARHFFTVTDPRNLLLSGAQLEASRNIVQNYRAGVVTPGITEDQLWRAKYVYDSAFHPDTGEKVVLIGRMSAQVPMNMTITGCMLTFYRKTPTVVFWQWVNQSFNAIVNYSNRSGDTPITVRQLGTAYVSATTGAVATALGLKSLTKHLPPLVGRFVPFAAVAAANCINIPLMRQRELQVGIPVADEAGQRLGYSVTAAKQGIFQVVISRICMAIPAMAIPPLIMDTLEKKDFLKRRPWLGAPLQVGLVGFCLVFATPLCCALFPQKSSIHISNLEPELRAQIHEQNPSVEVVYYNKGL

H1FX = biological target: T2, H1FX (human, UniProt Q92522 2-213)
T2 construct: also called NP_006017.1
T2 sequence (Q92522 2-213 limits assumed): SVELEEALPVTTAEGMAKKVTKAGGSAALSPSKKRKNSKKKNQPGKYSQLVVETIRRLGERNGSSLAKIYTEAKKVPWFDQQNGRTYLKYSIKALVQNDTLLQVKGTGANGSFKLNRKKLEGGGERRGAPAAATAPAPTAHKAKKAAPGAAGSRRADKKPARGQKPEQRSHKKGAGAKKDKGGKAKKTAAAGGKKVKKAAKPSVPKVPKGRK

ELOC = biological target: T3, ELOC (human, UniProt Q15369 1-112)
T3 construct: also called NP_001191791.1
T3 sequence (Q15369 whole entry): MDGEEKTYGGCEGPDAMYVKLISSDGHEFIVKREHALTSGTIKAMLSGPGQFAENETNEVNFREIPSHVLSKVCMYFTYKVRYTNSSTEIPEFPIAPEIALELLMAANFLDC

ERP44 = biological target: T4, ERP44 (human, UniProt Q9BS26 30-406)
T4 construct: also called NP_055866.1
T4 sequence (looked up): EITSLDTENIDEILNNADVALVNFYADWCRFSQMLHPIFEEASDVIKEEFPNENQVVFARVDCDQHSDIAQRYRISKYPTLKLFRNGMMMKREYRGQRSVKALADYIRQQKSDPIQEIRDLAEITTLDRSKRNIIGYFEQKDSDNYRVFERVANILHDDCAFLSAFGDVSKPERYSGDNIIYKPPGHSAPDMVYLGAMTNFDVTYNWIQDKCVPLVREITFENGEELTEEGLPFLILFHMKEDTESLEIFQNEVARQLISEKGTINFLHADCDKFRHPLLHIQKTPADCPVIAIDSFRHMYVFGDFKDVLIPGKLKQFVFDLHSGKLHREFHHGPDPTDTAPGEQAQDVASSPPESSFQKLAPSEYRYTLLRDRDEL

RCN1 = biological target: T5, RCN1 (human, UniProt Q15293 30-331)
T5 construct: also called NP_002892.1
T5 sequence (looked up): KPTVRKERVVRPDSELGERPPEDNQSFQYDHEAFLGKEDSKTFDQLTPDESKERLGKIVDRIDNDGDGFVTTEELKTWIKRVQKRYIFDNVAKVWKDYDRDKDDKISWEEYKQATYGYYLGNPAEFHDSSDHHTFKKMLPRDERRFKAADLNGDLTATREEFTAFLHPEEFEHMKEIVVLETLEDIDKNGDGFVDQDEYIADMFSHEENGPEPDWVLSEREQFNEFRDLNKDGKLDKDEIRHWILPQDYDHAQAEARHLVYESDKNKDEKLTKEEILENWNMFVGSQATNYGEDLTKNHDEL

TECR = biological target: T6, TECR (human, UniProt Q9NZ01 1-308)
T6 construct: also called NP_612510.1 (+2)
T6 sequence (looked up): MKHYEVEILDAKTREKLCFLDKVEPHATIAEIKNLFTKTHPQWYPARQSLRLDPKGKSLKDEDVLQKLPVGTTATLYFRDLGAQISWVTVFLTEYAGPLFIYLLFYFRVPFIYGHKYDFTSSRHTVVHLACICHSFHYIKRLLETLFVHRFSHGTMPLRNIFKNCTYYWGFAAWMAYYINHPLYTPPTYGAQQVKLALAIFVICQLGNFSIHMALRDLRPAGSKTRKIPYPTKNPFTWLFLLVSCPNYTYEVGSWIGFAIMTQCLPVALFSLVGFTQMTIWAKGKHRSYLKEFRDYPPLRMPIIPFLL

co-IP mass spectrometry count (SFXN3): 0 | co-IP mass spectrometry count (H1FX): 0 | co-IP mass spectrometry count (ELOC): 0 | co-IP mass spectrometry count (ERP44): 0 | co-IP mass spectrometry count (RCN1): 0 | co-IP mass spectrometry count (TECR): 0
B1: N-terminal FLAG tagged B3GNT2 (enzyme, human, UniProt Q9NY97 1-397, looked up)
chain: MSVGRRRIKLLGILMMANVFIYFIMEVSKSSSQEKNGKGEVIIPKEKFWKISTPPEAYWNREQEKLNRQYNPILSMLTNQTGEAGRLSNISHLNYCEPDLRVTSVVTGFNNLPDRFKDFLLYLRCRNYSLLIDQPDKCAKKPFLLLAIKSLTPHFARRQAIRESWGQESNAGNQTVVRVFLLGQTPPEDNHPDLSDMLKFESEKHQDILMWNYRDTFFNLSLKEVLFLRWVSTSCPDTEFVFKGDDDVFVNTHHILNYLNSLSKTKAKDLFIGDVIHNAGPHRDKKLKYYIPEVVYSGLYPPYAGGGGFLYSGHLALRLYHITDQVHLYPIDDVYTGMCLQKLGLVPEKHKGFRTFDIEEKNKNNICSYVDLMLVHSRKPQEMIDIWSQLQSAHLKC
notes: Bait of the co-IP; pulled down from cell lysate with mouse anti-FLAG antibody; also called N-FLAG B3GNT2; N-term FLAG; not shown: N-terminal FLAG tag
